B1: wild-type FokI restriction endonuclease (enzyme, UniProt P14870 1-579, looked up)
chain: MVSKIRTFGWVQNPGKFENLKRVVQVFDRNSKVHNEVKNIKIPTLVKESKIQKELVAIMNQHDLIYTYKELVGTGTSIRSEAPCDAIIQATIADQGNKKGYIDNWSSDGFLRWAHALGFIEYINKSDSFVITDVGLAYSKSADGSAIEKEILIEAISSYPPAIRILTLLEDGQHLTKFDLGKNLGFSGESGFTSLPEGILLDTLANAMPKDKGEIRNNWEGSSDKYARMIGGWLDKLGLVKQGKKEFIIPTLGKPDNKEFISHAFKITGEGLKVLRRAKGSTKFTRVPKRVYWEMLATNLTDKEYVRTRRALILEILIKAGSLKIEQIQDNLKKLGFDEVIETIENDIKGLINTGIFIEIKGRFYQLKDHILQFVIPNRGVTKQLVKSELEEKKSELRHKLKYVPHEYIELIEIARNSTQDRILEMKVMEFFMKVYGYRGKHLGGSRKPDGAIYTVGSPIDYGVIVDTKAYSGGYNLPIGQADEMQRYVEENQTRNKHINPNEWWKVYPSSVTEFKFLFVSGHFKGNYKAQLTRLNHITNCNGAVLSVEELLIGGEMIKAGTLTLEEVRRKFNNGEINF

Tests used:
[1] = biological target: the molecule itself; assay: single-turnover enzyme kinetics
[2] = biological target: B1; assay: steady-state enzyme kinetics

Row | Kd [2] | Binder | Kd [1]
1 |  | B1 | 99 ± 19 nM
2 | 166 ± 73 nM | N13Y variant of the FokI endonuclease (enzyme, UniProt P14870 1-579, looked up) MVSKIRTFGWVQYPGKFENLKRVVQVFDRNSKVHNEVKNIKIPTLVKESKIQKELVAIMNQHDLIYTYKELVGTGTSIRSEAPCDAIIQATIADQGNKKGYIDNWSSDGFLRWAHALGFIEYINKSDSFVITDVGLAYSKSADGSAIEKEILIEAISSYPPAIRILTLLEDGQHLTKFDLGKNLGFSGESGFTSLPEGILLDTLANAMPKDKGEIRNNWEGSSDKYARMIGGWLDKLGLVKQGKKEFIIPTLGKPDNKEFISHAFKITGEGLKVLRRAKGSTKFTRVPKRVYWEMLATNLTDKEYVRTRRALILEILIKAGSLKIEQIQDNLKKLGFDEVIETIENDIKGLINTGIFIEIKGRFYQLKDHILQFVIPNRGVTKQLVKSELEEKKSELRHKLKYVPHEYIELIEIARNSTQDRILEMKVMEFFMKVYGYRGKHLGGSRKPDGAIYTVGSPIDYGVIVDTKAYSGGYNLPIGQADEMQRYVEENQTRNKHINPNEWWKVYPSSVTEFKFLFVSGHFKGNYKAQLTRLNHITNCNGAVLSVEELLIGGEMIKAGTLTLEEVRRKFNNGEINF | 

From publication PMC1410913 (Nucleic Acids Research, 2006)
